Where a chain is given by its changes, count along the chain named.

For this assay, the target named is Human Galectin-3 protein (Acro Biosystems, GA3-H5129) (human) (UniProt P17931). Put plainly: ELISA, INSR binding to coated Gal3 with 3 ug/mL antibody. A general note: ELISA stands for enzyme-linked immunosorbent assay.
Sequence of Human Galectin-3 protein (Acro Biosystems, GA3-H5129) (human) (P17931 2-250): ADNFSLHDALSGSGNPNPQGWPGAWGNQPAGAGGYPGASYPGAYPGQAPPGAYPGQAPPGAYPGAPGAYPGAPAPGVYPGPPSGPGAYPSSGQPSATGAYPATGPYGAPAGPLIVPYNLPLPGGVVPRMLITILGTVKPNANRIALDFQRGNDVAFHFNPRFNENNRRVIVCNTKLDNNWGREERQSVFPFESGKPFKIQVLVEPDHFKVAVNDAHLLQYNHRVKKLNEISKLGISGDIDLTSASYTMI

B1: 20D11.2C6 (antibody, V domains shown)
VH: EVQLQQSGPELVKPGASVKISCKASGYTFTDFYINWVKQSHGKSLEWIGDINPKNGGINYNPKFKIKATLTVDKSSSTSYMDLRGLTSEDSAVYYCTSGYGFPYWGQGTLVTVSA
VL: DIQMNQSPSSLSASLGDTITITCRASQNIYIWLSWYQQKPGNIPKLLIYKASNLHTGVPSRFSGSGSGTDFTLTISTLQPEDIATYFCLQGQSYPLTFGAGTKLEMKR
Turning to B1, the Gal3-INSR binding left, % of unblocked sample was less than 5%.

B2: 6H6.2D6 (antibody, V domains shown)
VH: QIQLVQSGPELKKPGETVKISCKASGYTFTTYGMSWVKQAPGKGLKWMAWINTYSGVPTYADDFKGRFAFSLETSASTAYLQINNLTNEDTATYFCARGPYAMDYWGQGTSVTVSS
VL: DIQMTQTTSSLSASLGDRVTISCSASQGISNYLNWYQQKPDGTVKLLIYYTSSLHSGVPSRFSGSGSGTDYSLTISNLEPEDIATYYCQQYSELPYTFGSGTKLEIKR
Take B2: the Gal3-INSR binding left, % of unblocked sample was less than 5%.

B3: 2D10.2B2 (antibody, V domains shown)
VH: QVQLQQSGPELVKPGASVKISCKASGYTFTDYYINWVKQRPGQGLEWIGWIYPGSNDTKYNEKFKGKATLTVDTSSSTAYMQLGSLTSEDSAVYFCANYFGCSGWFFDVWGTGTTVTVSS
VL: DIVMTQAAFSNPVTLGTSASISCRSSKSLLHSDGITYLYWYLQRPGQSPQLLIYRMSNLASGVPDRFSGSGSGTDFTLRISRVEAEDVGVYYCAQMIEFPLTFGAGTILELKR
In turn, B3 displayed a Gal3-INSR binding left, % of unblocked sample of less than 5%.

B4: 4A11.2B5 (antibody, V domains shown)
VH: QVQLQQSGPELVKPGASVKISCKASGYSFTNYYIHWVKQRPGQGLEWIGWIYPGSGNTNYNEKFKGKATLTADTSSSTTNMQLSSLTSEDSAVYYCSTAPGGFDVWGSGTTVTVSS
VL: B3 VL with I97L, I108K
Molecule B4 yielded a Gal3-INSR binding left, % of unblocked sample of less than 5%.

Source of the values: US20220411514A1, “ANTI-GAL3 ANTIBODIES AND METHODS OF USE FOR INSULIN RESISTANCE” (TrueBinding, Inc., priority 2021, published 2022).
